Test results reported in patent US20260049138A1 (Chugai, published 2026).
Numbering of substitutions follows the chain as printed. In names and notes the source's numbering stands.

B1: GLS3000 T31N one-arm antibody (antibody, human IgG1, kappa, L234A L235A, N297A, name in Kabat numbering)
heavy: QVQLVESGGGVVQPGRSLRLSCAASGFTFSNAWMHWVRQAPGKGLEWVAQIKAKSNNYATYYAESVKGRFTISRDDSKNSLYLQMNSLKTEDTAVYYCRYVHYGAYYGVDAWGQGTTVTVSSASTKGPSVFPLAPSSKSTSGGTAALGCLVKDYFPEPVTVSWNSGALTSGVHTFPAVLQSSGLYSLSSVVTVPSSSLGTQTYICNVNHKPSNTKVDKKVEPKSCDKTHTCPPCPAPEAAGGPSVFLFPPKPKDTLMISRTPEVTCVVVDVSHEDPEVKFNWYVDGVEVHNAKTKPREEQYASTYRVVSVLTVLHQDWLNGKEYKCKVSNKALPAPIEKTISKAKGQPREPQVYTLPPSRCELTKNQVSLSCAVKGFYPSDIAVEWESNGQPENNYKTTPPVLDSDGSFFLVSKLTVDKSRWQQGNVFSCSVMHEALHNHYTQKSLSLSPDYKDDDDK
chain: EPKSSDKTHTCPPCPAPELLGGPSVFLFPPKPKDTLMISRTPEVTCVVVDVSHEDPEVKFNWYVDGVEVHNAKTKPREEQYNSTYRVVSVLTVLHQDWLNGKEYKCKVSNKALPAPIEKTISKAKGQPREPQVCTLPPSRDELTKNQVSLWCLVKGFYPSDIAVEWESNGQPENNYKTTPPVLDSDGSFFLYSKLTVDKSRWQQGNVFSCSVMHEALHNRYTQKSLSLSP
light: DIVMTQSPLSLPVTPGEPASISCRSSQSLVHSNRNNYLHWYQQKPGQAPRLLIYKVSNRFSGVPDRFSGSGSGTDFTLKISRVEAEDVGVYYCGQGTQVPYTFGQGTKLEIKRTVAAPSVFIFPPSDEQLKSGTASVVCLLNNFYPREAKVQWKVDNALQSGNSQESVTEQDSKDSTYSLSSTLTLSKADYEKHKVYACEVTHQGLSSPVTKSFNRGEC
B2: GLS3000 T31P one-arm antibody (antibody, human IgG1, kappa, L234A L235A, N297A, name in Kabat numbering)
heavy: B1 heavy
chain: B1 chain
light: B1 light with N36P
B3: GLS3000 T97P one-arm antibody (antibody, human IgG1, kappa, L234A L235A, N297A, name in Kabat numbering)
heavy: B1 heavy
chain: B1 chain
light: B1 light with N36T, T102P
B4: GLS3000 T92I one-arm antibody (antibody, human IgG1, kappa, L234A L235A, N297A, name in Kabat numbering)
heavy: B1 heavy
chain: B1 chain
light: B1 light with N36T, T97I
B5: GLS3000 V51P one-arm antibody (antibody, human IgG1, kappa, L234A L235A, N297A, name in Kabat numbering)
heavy: B1 heavy
chain: B1 chain
light: B1 light with N36T, V56P
B6: GLS3000 T92A one-arm antibody (antibody, human IgG1, kappa, L234A L235A, N297A, name in Kabat numbering)
heavy: B1 heavy
chain: B1 chain
light: B1 light with N36T, T97A
B7: GLS3000 T92P one-arm antibody (antibody, human IgG1, kappa, L234A L235A, N297A, name in Kabat numbering)
heavy: B1 heavy
chain: B1 chain
light: B1 light with N36T, T97P
B8: GLS3000 V94I one-arm antibody (antibody, human IgG1, kappa, L234A L235A, N297A, name in Kabat numbering)
heavy: B1 heavy
chain: B1 chain
light: B1 light with N36T, V99I
B9: GLS3000 V94F one-arm antibody (antibody, human IgG1, kappa, L234A L235A, N297A, name in Kabat numbering)
heavy: B1 heavy
chain: B1 chain
light: B1 light with N36T, V99F
B10: GLS3000 V27cS one-arm antibody (antibody, human IgG1, kappa, L234A L235A, N297A, name in Kabat numbering)
heavy: B1 heavy
chain: B1 chain
light: B1 light with V30S, N36T
B11: GLS3000 V94M one-arm antibody (antibody, human IgG1, kappa, L234A L235A, N297A, name in Kabat numbering)
heavy: B1 heavy
chain: B1 chain
light: B1 light with N36T, V99M
B12: GLS3000 V94G one-arm antibody (antibody, human IgG1, kappa, L234A L235A, N297A, name in Kabat numbering)
heavy: B1 heavy
chain: B1 chain
light: B1 light with N36T, V99G
B13: GLS3000 V27cL one-arm antibody (antibody, human IgG1, kappa, L234A L235A, N297A, name in Kabat numbering)
heavy: B1 heavy
chain: B1 chain
light: B1 light with V30L, N36T
B14: GLS3000 V27cI one-arm antibody (antibody, human IgG1, kappa, L234A L235A, N297A, name in Kabat numbering)
heavy: B1 heavy
chain: B1 chain
light: B1 light with V30I, N36T
B15: GLS3000 V94D one-arm antibody (antibody, human IgG1, kappa, L234A L235A, N297A, name in Kabat numbering)
heavy: B1 heavy
chain: B1 chain
light: B1 light with N36T, V99D
B16: GLS3000 V27cY one-arm antibody (antibody, human IgG1, kappa, L234A L235A, N297A, name in Kabat numbering)
heavy: B1 heavy
chain: B1 chain
light: B1 light with V30Y, N36T
B17: GLS3000 V51I one-arm antibody (antibody, human IgG1, kappa, L234A L235A, N297A, name in Kabat numbering)
heavy: B1 heavy
chain: B1 chain
light: B1 light with N36T, V56I
B18: GLS3000 T92Y one-arm antibody (antibody, human IgG1, kappa, L234A L235A, N297A, name in Kabat numbering)
heavy: B1 heavy
chain: B1 chain
light: B1 light with N36T, T97Y
B19: GLS3000 V94H one-arm antibody (antibody, human IgG1, kappa, L234A L235A, N297A, name in Kabat numbering)
heavy: B1 heavy
chain: B1 chain
light: B1 light with N36T, V99H
B20: GLS3000 T92S one-arm antibody (antibody, human IgG1, kappa, L234A L235A, N297A, name in Kabat numbering)
heavy: B1 heavy
chain: B1 chain
light: B1 light with N36T, T97S
B21: GLS3000 V94A one-arm antibody (antibody, human IgG1, kappa, L234A L235A, N297A, name in Kabat numbering)
heavy: B1 heavy
chain: B1 chain
light: B1 light with N36T, V99A
B22: GLS3000 V51D one-arm antibody (antibody, human IgG1, kappa, L234A L235A, N297A, name in Kabat numbering)
heavy: B1 heavy
chain: B1 chain
light: B1 light with N36T, V56D
B23: GLS3000 V94E one-arm antibody (antibody, human IgG1, kappa, L234A L235A, N297A, name in Kabat numbering)
heavy: B1 heavy
chain: B1 chain
light: B1 light with N36T, V99E
B24: GLS3000 T92L one-arm antibody (antibody, human IgG1, kappa, L234A L235A, N297A, name in Kabat numbering)
heavy: B1 heavy
chain: B1 chain
light: B1 light with N36T, T97L
B25: GLS3000 V27cD one-arm antibody (antibody, human IgG1, kappa, L234A L235A, N297A, name in Kabat numbering)
heavy: B1 heavy
chain: B1 chain
light: B1 light with V30D, N36T
B26: GLS3000 V94N one-arm antibody (antibody, human IgG1, kappa, L234A L235A, N297A, name in Kabat numbering)
heavy: B1 heavy
chain: B1 chain
light: B1 light with N36T, V99N
B27: GLS3000 V51G one-arm antibody (antibody, human IgG1, kappa, L234A L235A, N297A, name in Kabat numbering)
heavy: B1 heavy
chain: B1 chain
light: B1 light with N36T, V56G
B28: GLS3000 V51E one-arm antibody (antibody, human IgG1, kappa, L234A L235A, N297A, name in Kabat numbering)
heavy: B1 heavy
chain: B1 chain
light: B1 light with N36T, V56E
B29: GLS3000 V94K one-arm antibody (antibody, human IgG1, kappa, L234A L235A, N297A, name in Kabat numbering)
heavy: B1 heavy
chain: B1 chain
light: B1 light with N36T, V99K
B30: GLS3000 V94L one-arm antibody (antibody, human IgG1, kappa, L234A L235A, N297A, name in Kabat numbering)
heavy: B1 heavy
chain: B1 chain
light: B1 light with N36T, V99L
B31: GLS3000 T92E one-arm antibody (antibody, human IgG1, kappa, L234A L235A, N297A, name in Kabat numbering)
heavy: B1 heavy
chain: B1 chain
light: B1 light with N36T, T97E
B32: GLS3000 V27cE one-arm antibody (antibody, human IgG1, kappa, L234A L235A, N297A, name in Kabat numbering)
heavy: B1 heavy
chain: B1 chain
light: B1 light with V30E, N36T
B33: GLS3000 T92D one-arm antibody (antibody, human IgG1, kappa, L234A L235A, N297A, name in Kabat numbering)
heavy: B1 heavy
chain: B1 chain
light: B1 light with N36T, T97D
B34: GLS3000 V27cP one-arm antibody (antibody, human IgG1, kappa, L234A L235A, N297A, name in Kabat numbering)
heavy: B1 heavy
chain: B1 chain
light: B1 light with V30P, N36T

biological target: T1, CD3ε homodimer protein (human, UniProt P07766 23-126, limits assumed); assay: SPR Biacore T200, CD3ε homodimer on chip;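 note: Light-chain single-residue variant antibodies injected over amine-coupled CD3ε homodimer on a CM4 chip at 25 °C, bound amount divided by that of the GLS3000-containing antibody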
T1 construct: also called CD3 (CD3ε)
T1 sequence (P07766 23-126 limits assumed): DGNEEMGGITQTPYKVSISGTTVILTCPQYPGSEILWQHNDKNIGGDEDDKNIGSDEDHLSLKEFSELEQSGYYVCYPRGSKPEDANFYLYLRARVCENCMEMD

Row | Binder | ratio of amount bound vs unaltered GLS3000
1 | B1 | 0.32
2 | B2 | 0.31
3 | B3 | 0.31
4 | B4 | 0.34
5 | B5 | 0.32
6 | B6 | 0.63
7 | B7 | 0.26
8 | B8 | 0.66
9 | B9 | 0.71
10 | B10 | 0.51
11 | B11 | 0.44
12 | B12 | 0.48
13 | B13 | 0.84
14 | B14 | 0.96
15 | B15 | 0.89
16 | B16 | 0.77
17 | B17 | 0.81

Row | Binder | ratio of amount bound vs unaltered GLS3000
18 | B18 | 0.33
19 | B19 | 0.78
20 | B20 | 0.96
21 | B21 | 1.05
22 | B22 | 0.33
23 | B23 | 0.5
24 | B24 | 0.42
25 | B25 | 0.32
26 | B26 | 1.05
27 | B27 | 0.84
28 | B28 | 0.64
29 | B29 | 0.57
30 | B30 | 0.44
31 | B31 | 0.17
32 | B32 | 0.61
33 | B33 | 0.18
34 | B34 | 0.3
